Assays:
Conditions in all cases: protein: recombinant; tags: none; blunt
AFV1p06 (ORF59a) [1] = target: T1, AFV1p06 (ORF59a) (Acidianus filamentous virus 1? (AFV1, …, UniProt Q70LE5 1-59)); assay: competition; vs labelled dsATcomb 75 nM, 0.5 uM protein; 50 mM HEPES pH 7.4, 10 uM ZnCl2, 150 mM NaCl, 5% glycerol, 0.02% Tween, 3 mM DTT, 50 ng/uL salmon sperm DNA, 15 min at 48 C; 6% native PAGE in TBE
T1 sequence: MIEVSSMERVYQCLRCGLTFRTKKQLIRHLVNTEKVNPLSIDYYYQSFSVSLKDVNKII

AFV1p06 (ORF59a) [2] = target: T1, AFV1p06 (ORF59a); assay: EMSA; 10 uM ZnCl2, 50 ng/uL salmon sperm DNA, 75 nM probe, 0-2 uM protein; 50 mM HEPES pH 7.4, 10 uM ZnCl2, 150 mM NaCl, 5% glycerol, 0.02% Tween, 3 mM DTT, 50 ng/uL salmon sperm DNA, 15 min at 48 C; 6% native PAGE in TBE
AFV1p06 (ORF59a) [3] = target: T1, AFV1p06 (ORF59a); assay: competition; vs labelled dsGCcomb 75 nM, 0.5 uM protein; 50 mM HEPES pH 7.4, 10 uM ZnCl2, 150 mM NaCl, 5% glycerol, 0.02% Tween, 3 mM DTT, 50 ng/uL salmon sperm DNA, 15 min at 48 C; 6% native PAGE in TBE

B1: dsGCcomb (dsDNA)
DNA 1: AGGGTGGCAGCGTCGGAGCCTCGCA
DNA 2: TGCGAGGCTCCGACGCTGCCACCCT
With B1 the binding signal (AFV1p06 (ORF59a) [1]) was ~0.5 molar ratio of cold dsGCcomb to hot dsATcomb giving clear signal decrease and the binding signal (AFV1p06 (ORF59a) [2]) was ≥ 2 fold more efficient than dsATcomb.

B2: dsATcomb (dsDNA)
DNA 1: AATGATTCTAAGTATCTTAGAAACA
DNA 2: TGTTTCTAAGATACTTAGAATCATT
In the case of B2, the binding signal (AFV1p06 (ORF59a) [3]) is reported as ~5 molar ratio of cold dsATcomb to hot dsGCcomb for similar displacement.

From PMC3541406, “Solution Structure of an Archaeal DNA Binding Protein with an Eukaryotic Zinc Finger Fold”
